The values that follow come from paper PMC10275869 (Nature Communications, 2023).

For the experiment, the target named is MojV F clamp2 (prefusion Mòjiāng virus fusion glycoprotein ectodomain stabilised with the clamp2 molecular … (Mòjiāng virus)). In words: ELISA. The conditions noted are these: both partners purified. (In general: In an ELISA, binding on a coated surface is turned into a signal by an enzyme label.)

B1: mAb66 (human IgG1) (antibody, V domains shown)
VH: ETGSGGGLVKPGGTLTLTCKASGFTLSSYWMCWVRQAPGKGLELIACLYTNGATTWYASWVNGRFAISRSTSRNTVDLNMTSLTAADTATYFCARGSGSGWSWFNIWGPGTLVTVSS
VL: TGVMTQTPASVEAAVGGTVTIKCQASQNIISSLAWYQQKPGQRPKLLIYYASTLASGVPSRFKGSGSGTQFTLTISDLECADAATYYCQSYYYSGITYGNAFGGGTEVVVK
As to B1, the binding result is given as “no binding (tested: 50 μg/mL)”.

B2: 1F5 (human IgG1) (antibody, V domains shown)
VH: DVQLQESGPGLVKPSQSLSLTCSVTGYSITSDYYWNWIRQFPGNKLEWMGYVTYDGSNNYNPSLKNRISITRDSSKNQFFLKLNSVISEDTATYYCARFGSSYWAMDYWGQGTSLTVSS
VL: QIVLTQSPAIMSASLGEAITLTCSASSSVSYMHWYQQKSGTSPKLLIYSTSNLASGVPSRFSGSGSGTFYSLTISSVEAEDAADYYCHQWYSYPWTFGGGTKLEIK
Turning to B2, the binding result is listed as “no binding (tested: 50 μg/mL)”.

B3: 12B2 (human IgG1) (antibody, V domains shown)
VH: QVQLKESGPGLVAPSQSLSITCTVSGFSLASYGVHWVRQPPGKGLEWLGVIWTGGSTNYNSALMSRLSINRDNSKSQVFLKLNSLQTDDTAIYYCARDRGYGYGGFAYWGQGTLVTVSA
VL: DIQMTQSPASLSASVGETVTITCRASENIYSYLAWYQHKQGKSPQLLVYNAKSLAEGVPSRFSGSGSGTQFSLKINSLQPEDFGSYYCQHHYGTPWTFGGGTKLEIK
For the molecule B3, the binding result is recorded as “no binding (tested: 50 μg/mL)”.

B4: 5B3 (human IgG1) (antibody, V domains shown)
VH: EVQLVESGGGLVKPGGSLKLSCAASGFTFSSYDMSWVRQTPEKRLEWVAMISSGGSYSYYPDSVKGRFTISRDNAKNTLYLQMSSLRSEDTAMYYCARQGDYAWFAYWGQGTLVTVSS
VL: DIQMTQSPASQSASLGESVTITCLASQTIGTWLAWYQQKPGKSPQLLIYAATSLADGVPSRFSGSGSGTKFSFKISSLQAEDFVSYYCQQFYSTPFTFGGGTKLEIK
As for B4, the binding result is “no binding (tested: 50 μg/mL)”.
